These results are taken from publication PMC2646082.

Read-outs that look alike come from different tables or passages of the source.

Common to all, as to test: ITC
On the technique in general: ITC needs no label: the signal is the heat of the interaction.

Series [1] addresses T1, HIV-1 nucleocapsid protein (NC) (HIV-1 NL4-3, UniProt P12493 378-432).
Series [2] has as its target T1, HIV-1 nucleocapsid protein (NC). This is another data set of the same source.
Series [3] shares this target. The source holds these as a separate data set.
For series [4] the target is unchanged. This is another data set of the same source.
Series [5] shares this target. This is another data set of the same source.
Series [6] shares this target. The source holds these as a separate data set.
Series [7] has the same target. The source holds these as a separate data set.
Series [8] has the same target. This is another data set of the same source.

On to UUUUCCCGUCU (ssRNA) [U5UUG (G106U;G108U)], for which the Kd (usually the constant that tells how readily two partners part at equilibrium) in series [1] worked out at 547 ± 55 nM.

In turn, UGUGCCCUUCU (ssRNA) [U5GGU (G112U)] displayed an equilibrium dissociation constant (Kd) in series [2] of 81 ± 8 nM. UUUGCCCUUCU (ssRNA) [U5UGU (G106U;G112U)] had a dissociation constant (Kd) in series [3] of 812 ± 91 nM.

With UUUUCCCUUCU (ssRNA) [U5UUU (G106U;G108U;G112U)], in series [4], the binding result is “no binding”. On to UGUUCCCGUCU (ssRNA) [U5GUG (G108U)], for which the Kd in series [5] was found to be 239 ± 20 nM. In turn, UGUUCCCUUCU (ssRNA) [U5GUU (G108U;G112U)] yielded a Kd in series [6] of 880 ± 91 nM. On to UUUGCCCGUCU (ssRNA) [U5UGG (G106U)], for which binding in series [7] was put at a Kd of 267 ± 20 nM. Consider UGUGCCCGUCU (ssRNA) [U5 (U5GGG, native)], for which the equilibrium dissociation constant (Kd) in series [8] came to 122 ± 10 nM.
